B1: CPEB3 Ribozyme (parent)
chain: GGGGGCCACAGCAGAAGCGUUCACGUCGCGGCCCCUGUCAGAUUCUGGUGAAUCUGCGAAUUCUGCUGU

Variants of: B1
Test: self-cleavage, relative activity (ratio to wild type); higher = more cleavage; co-transcriptional

| Variant | self-cleavage |
| --- | --- |
| GGGGGGCACAGCAGAAGCGUUCACGUCGCGGCCCCUGUCAGAUUCUGGUGAAUCUGCGAAUUCUGGUGU | 0.311 |
| GGGGGGCACAGCAGAAGCGUUCACGUCGCGGCCCCUGUCAGAUUCUGGUGAAUCAGCGAAUUCUGCUGU | 0.26 |
| GGGGGGCACAGCAGAAGCGUUCACGUCGCGGCCCCUGUCAGAUUCUGGUGAAUCGGCGAAUUCUGCUGU | 0.144 |
| GGGGGGCACAGCAGAAGCGUUCACGUCGCGGCCCCUGUCAGAUUCUGGUGAAUCCGCGAAUUCUGCUGU | 0.284 |
| GGGGGGCACAGCAGAAGCGUUCACGUCGAGGCCCCUGUCAGAUUCUGGUGAAUCUGCGAAUUCUGCUGU | 0.0897 |
| GGGGGGCACAGCAGAAGCGUUCACGUCGCGGCCCCUGUCAGAUUCUGGUCAAUCUGCGAAUUCUGCUGU | 0.205 |
| GGGGGGCACAGCAGAAGCGUUCACGUCGCGGCCCCUGGCAGAUUCUGGUGAAUCUGCGAAUUCUGCUGU | 0.0812 |
| GGGGGGCACAGCAGAAGCGUUCACGUCGCGGCCACUGUCAGAUUCUGGUGAAUCUGCGAAUUCUGCUGU | 0.0671 |
| GGGGGGCACAGCAGAAGCGUUCACGUCGCGGCCCCUGUCAGAUUCUGAUGAAUCUGCGAAUUCUGCUGU | 0.493 |
| GGGGGGCACAGCAGAAGCGUUCACGUCCCGGCCCCUGUCAGAUUCUGGUGAAUCUGCGAAUUCUGCUGU | 0.0369 |
| GGGGGGCACAGCAGAAGCGUUCACGUCACGGCCCCUGUCAGAUUCUGGUGAAUCUGCGAAUUCUGCUGU | 0.0625 |
| GGGGGGCACAGCAGAAGCGUUCACGCCGCGGCCCCUGUCAGAUUCUGGUGAAUCUGCGAAUUCUGCUGU | 0.249 |
| GGGGGGCACAGCAGAAGCGUUCACAUCGCGGCCCCUGUCAGAUUCUGGUGAAUCUGCGAAUUCUGCUGU | 0.0449 |
| GGGGGGCACAGCAGAAGCGUUCACGUCGCGGCCCCUUUCAGAUUCUGGUGAAUCUGCGAAUUCUGCUGU | 0.0713 |
| GGGGGGCACAGCAGAAGCGUUCACGUCGCGGCCCCUGUCAGAUUCUGGUGAAUCUGCGAAAUCUGCUGU | 0.128 |
| GGGGGGCACAGCAGAAGCGUUCACGUCGCGGCCCCUGUCAGAUUCGGGUGAAUCUGCGAAUUCUGCUGU | 0.386 |
| GGGGGGCACAGCAGAAGCGUUCACGUCGCGGCCCCUGUCAGAUUCCGGUGAAUCUGCGAAUUCUGCUGU | 0.41 |
| GGGGGGCACAGCAGAAGCGUUCACGUCGCGGCCCCUGUCAGAUUCAGGUGAAUCUGCGAAUUCUGCUGU | 0.377 |
| GGGGGGCACAGCAGAAGCGUUCACGUCGCGGCCCGUGUCAGAUUCUGGUGAAUCUGCGAAUUCUGCUGU | 0.0784 |
| GGGGGGCACAGCAGAAGCGUACACGUCGCGGCCCCUGUCAGAUUCUGGUGAAUCUGCGAAUUCUGCUGU | 0.246 |

| Variant | self-cleavage |
| --- | --- |
| GGGGGGCACAGCAGAAGCGUUCACGUCGCGGCCCCUGUCAGAGUCUGGUGAAUCUGCGAAUUCUGCUGU | 0.126 |
| GGGGGGCACAGCAGAAGCGUUCACGUCGCGGCCCCUGUCAGAAUCUGGUGAAUCUGCGAAUUCUGCUGU | 0.172 |
| GGGGGGCACAGCAGAAGCGCUCACGUCGCGGCCCCUGUCAGAUUCUGGUGAAUCUGCGAAUUCUGCUGU | 0.0949 |
| GGGGGGCACAGCAGAAGCGGUCACGUCGCGGCCCCUGUCAGAUUCUGGUGAAUCUGCGAAUUCUGCUGU | 0.0342 |
| GGGGGGCACAGCAGAAGCGUUCACGUCGCGGCCCCUGUCACAUUCUGGUGAAUCUGCGAAUUCUGCUGU | 0.118 |
| GGGGGGCACAGCAGAAGCGUUCACGUCGCGGCCCCUGUCAGAUUCUGGUGAAGCUGCGAAUUCUGCUGU | 0.136 |
| GGGGGGCACAGCAGAAGCGUUCACGUCGCGGCCCCUGUUAGAUUCUGGUGAAUCUGCGAAUUCUGCUGU | 0.168 |
| GGGGGGCACAGCAGAAGCGUUCACGUCGCGGCCCCUGUAAGAUUCUGGUGAAUCUGCGAAUUCUGCUGU | 0.173 |
| GGGGGGCACAGCAGAAGCGUUCACGUCGCGCCCCCUGUCAGAUUCUGGUGAAUCUGCGAAUUCUGCUGU | 0.93 |
| GGGGGGCACAGCAGAAGCGUUCACGUCGCUGCCCCUGUCAGAUUCUGGUGAAUCUGCGAAUUCUGCUGU | 0.045 |
| GGGGGGCACAGCAGAAGCGUUCACGUCGCGGCCCCUGUCAGAUUCUGGUGAAUCUGCGAAUUCUCCUGU | 0.158 |
| GGGGGGCACAGCAGAAGCGUUCACGUCGCGGCCCCUGUCAGAUUCUGGUGAAUCUGGGAAUUCUGCUGU | 0.0373 |
| GGGGGGCACAGCAGAAGCGUUCACGUCGCGGCCCCUGUCAGAUUCUGGUGAAUAUGCGAAUUCUGCUGU | 0.162 |
| GGGGGGCACAUCAGAAGCGUUCACGUCGCGGCCCCUGUCAGAUUCUGGUGAAUCUGCGAAUUCUGCUGU | 0.185 |
| GGGGGGCACAACAGAAGCGUUCACGUCGCGGCCCCUGUCAGAUUCUGGUGAAUCUGCGAAUUCUGCUGU | 0.177 |
| GGGGGGCACAGCAGAAGCGUUCACGUCGCGGCCCCCGUCAGAUUCUGGUGAAUCUGCGAAUUCUGCUGU | 0.184 |
| GGGGGGCACAGCAGAAGCGUUCACGUCGCGGCCCCUGUCAGAUUCUUGUGAAUCUGCGAAUUCUGCUGU | 0.463 |
| GGGGGGCACAGCAUAAGCGUUCACGUCGCGGCCCCUGUCAGAUUCUGGUGAAUCUGCGAAUUCUGCUGU | 0.121 |
| GGGGGGCACAGCAGAAGCGUUCACGUCGCGGCCCCUGUCAGAUUGUGGUGAAUCUGCGAAUUCUGCUGU | 0.376 |
